According to patent US20190185562A1:

Key:
[1] = molecular target: gp130 expressed endogenously on IMR-32/STAT3-Luc cells (human) (UniProt P40189); assay: cell-based or functional assay
[2] = molecular target: wild-type human GP130 on HEK293.STAT3.Luc.GP130.hLEPR reporter cells (human) (UniProt P40189); assay: cell-based or functional assay
Sequence of wild-type human GP130 on HEK293.STAT3.Luc.GP130.hLEPR reporter cells (human) (P40189 23-918): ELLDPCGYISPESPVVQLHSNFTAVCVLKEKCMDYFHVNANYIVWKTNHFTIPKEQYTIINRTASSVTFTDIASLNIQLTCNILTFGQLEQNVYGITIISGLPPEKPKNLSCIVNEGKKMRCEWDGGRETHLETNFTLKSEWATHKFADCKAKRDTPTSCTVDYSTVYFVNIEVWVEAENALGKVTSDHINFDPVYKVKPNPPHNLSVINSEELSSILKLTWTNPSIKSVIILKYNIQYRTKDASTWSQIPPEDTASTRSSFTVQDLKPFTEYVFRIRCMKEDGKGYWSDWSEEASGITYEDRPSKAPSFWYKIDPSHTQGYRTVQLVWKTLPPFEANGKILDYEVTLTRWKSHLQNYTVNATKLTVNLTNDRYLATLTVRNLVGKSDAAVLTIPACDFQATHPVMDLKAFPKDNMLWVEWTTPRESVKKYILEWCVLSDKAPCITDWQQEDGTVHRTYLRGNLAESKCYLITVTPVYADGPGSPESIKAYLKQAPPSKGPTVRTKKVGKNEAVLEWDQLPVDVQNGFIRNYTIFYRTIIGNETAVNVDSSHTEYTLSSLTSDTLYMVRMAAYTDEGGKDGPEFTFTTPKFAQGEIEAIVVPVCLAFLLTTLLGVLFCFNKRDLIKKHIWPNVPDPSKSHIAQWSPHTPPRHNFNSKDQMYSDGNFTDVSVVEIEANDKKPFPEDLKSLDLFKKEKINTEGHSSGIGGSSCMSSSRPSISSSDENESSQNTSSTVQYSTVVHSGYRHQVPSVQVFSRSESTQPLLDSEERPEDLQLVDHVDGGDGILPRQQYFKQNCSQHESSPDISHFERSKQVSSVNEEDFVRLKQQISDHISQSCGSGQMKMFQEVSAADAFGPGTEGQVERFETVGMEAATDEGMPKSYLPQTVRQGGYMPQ

Sequence of gp130 expressed endogenously on IMR-32/STAT3-Luc cells (human) (P40189 23-918): as above

Row | EC50 of activation of IMR-32/STAT3-luc cells (STAT3-luciferase) [1] [pM] | EC50 (M), STAT3-luciferase activation of HEK293.STAT3.Luc.GP130.hLEPR (Y1141F) cells [2] [M] | EC50 (M), STAT3-luciferase activation of HEK293.STAT3.Luc.GP130.hLEPR (a) cells [2] [M] | Percentage activation as compared to hOSM [2] [%] | Percentage maximum activation as compared to hOSM [2] [%] | Binder
1 | 4 | – | – | – | – | human Ciliary Neurotrophic Factor (ligand, UniProt P26441 2-200, looked up) AFTEHSPLTPHRRDLCSRSIWLARKIRSDLTALTESYVKHQGLNKNINLDSADGMPVASTDQWSELTEAERLQENLQAYRTFHVLLARLLEDQQVHFTPTEGDFHQAIHTLLLQVAAFAYQIEELMILLEYKIPRNEADGMPINVGDGGLFEKKLWGLKVLQELSQWTVRSIHDLRFISSHQTGIPARGSHYIANNKKM
2 | 54 | 5.92e-10 | 1.21e-10 | 100 | 100 | human Oncostatin M (ligand, UniProt P13725 26-252, looked up) AAIGSCSKEYRVLLGQLQKQTDLMQDTSRLLDPYIRIQGLDVPKLREHCRERPGAFPSEETLRGLGRRGFLQTLNATLGCVLHRLADLEQRLPKAQDLERSGLNIEDLEKLQMARPNILGLRNNIYCMAQLLDNSDTAEPTKAGRGASQPPTPTPASDAFQRKLEGCRFLHGYHRFMHSVGRVFSKWGESPNRSRRHSPHQALRKGVRRTRPSRKGKRLMTRGQLPR
